Data: patent US10556944B2, “Fab region-binding peptide” (priority 2013, dated 2020)
Where no end group is shown, it is not given here.

Legend:
[1] = test system: anti-Her2antibody-Fab (IgG-Fab derived from anti-Her2 monoclonal antibody, Trastuzumab); test: Biacore 3000 surface plasmon resonance, affinity of SpG-β1 mutants for immobilized IgG-Fab; assay type: binding, human; conditions: Table 1, Example 2, GST-fused one-domain peptide; for KA: KA=kon/koff, 1:1 binding model; for KA Vs. Wild: fold of wild-type KA; for kon: 25° C., pH 7.4
Description: The Fab fragment was prepared by cleaving a humanized monoclonal IgG formulation as a starting material into a Fab fragment and an Fc fragment by papain, and separating and purifying only the Fab fragment.
Specifically, a humanized monoclonal IgG formulation (Herceptin, manufactured by Chugai Pharmaceutical Co., Ltd., in the case of anti-Her2 monoclonal antibody) was dissolved in a papain digestion buffer (0.1 M AcOH—AcONa, 2 mM EDTA, 1 mM cysteine, pH 5.5). Papain immobilized agarose: Papain Agarose from papaya latex (manufactured by Sigma) was added to the solution and the mixture was incubated at 37° C. for about 8 hours while being mixed with a rotator. The IgG-Fab was collected from flow-through fractions by affinity chromatography using a KanCapA column (manufactured by Kaneka Corporation). Thus, the IgG-Fab was separated and purified from the reaction solution (containing both the Fab fragment and the Fc fragment), which had been separated from the papain immobilized agarose. The separated IgG-Fab solution was purified by gel filtration chromatography using the Superdex 75 10/300 GL column (a standard buffer was used for equilibration and separation) to obtain an IgG-Fab solution.
(§1) The affinity of each of the SpG-β1 mutants produced in Example 1 (2) for the IgG-Fab was analyzed by using a biosensor: Biacore 3000 using surface plasmon resonance principle (manufactured by GE Healthcare Bioscience). In this example, the IgG-Fab produced in Example 2 (1) was immobilized on a sensor chip and each peptide was added on the chip. The interaction between the IgG-Fab and the peptide was detected. The IgG-Fab was immobilized on the sensor chip CM5 by amine coupling using N-hydroxysuccinimide (NHS) and N-ethyl-N′-(3-dimethylaminopropyl)carbodiimide hydrochloride (EDC), and ethanolamine was used for blocking (all the sensor chips and the immobilization reagents were manufactured by GE Healthcare Bioscience). The IgG-Fab solution was about 10-fold diluted in an immobilization buffer (10 mM CH3COOH—CH3COONa, pH 4.5) and the IgG-Fab was immobilized on the sensor chip in accordance with the protocol attached to the Biacore 3000. Further, a reference cell to be used as a negative control was also prepared by immobilizing ethanolamine for another flow cell on the chip after activation by EDC/NHS. Various SpG-31 mutants were appropriately prepared at concentrations of 0.1 to 100 μM by using a running buffer (20 mM NaH2PO4—Na2HPO4, 150 mM NaCl, 0.005% P-20, pH 7.4). Each peptide solution was added on the sensor chip at a flow rate of 40 μL/minute for 60 seconds. A sensorgram of the binding reaction at 25° C. was sequentially plotted during the addition (binding phase, 60 seconds) and after the addition (dissociation phase, 60 seconds). After each sensorgram determination, the sensor chip was regenerated by adding 20 mM NaOH (for 30 seconds).

[2] = molecular target: T1, anti-TNFα antibody-Fab (IgG-Fab derived from anti-TNFα monoclonal antibody, adalimumab) (Homo sapiens, UniProt P01834+P01857); test: as above; assay type: binding; conditions: for affinity / binding ability for the IgG-Fab compared with the wild-type (in words): Tables 1 and 3, FIGS. 2 and 3
T1 construct: cleaving a humanized monoclonal IgG formulation as a starting material into a Fab fragment and an Fc fragment by papain; purchased
Description: as §1
The affinity of the SpG-β1 mutant for the IgG-Fab was measured in the same manner as in the experiment of Example 2.
The affinity of the SpG-β1 mutant for the IgG-Fab was measured in the same manner as in the experiment of Example 3. In this experiment, the measurement was performed on the GST-cleaved type after the GST cleavage (Pep-). Further, not only one domain type (Pep.1d) but also one domain type with Cys at the C-terminus (Pep.1dC) and two domain type with Cys at the C-terminus (Pep.2dC) were used to perform the experiment.

[3] = Table 1, Example 2, GST-fused one-domain peptide, 25° C., pH 7.4
[4] = Table 1, Example 2, GST-fused one-domain peptide, KA=kon/koff, 1:1 binding model
[5] = Table 1, Example 2, fold of wild-type KA, GST-fused one-domain peptide
[6] = Table 3, Example 4, GST-cleaved type (Pep-), constructs Pep.1d, Pep.1dC, Pep.2dC
[7] = Table 3, Example 4, fold of wild-type KA of the same construct type
[8] = Table 2, Example 3, GST-fused one-domain peptide
[9] = Table 2, Example 3, GST-fused one-domain peptide, 25° C., pH 7.4
[10] = Table 2, Example 3, fold of wild-type KA, GST-fused one-domain peptide

| Substance | KA [2, 8] [M⁻¹] | koff [2, 9] [s⁻¹] | kon [2, 9] [s/M] | KA Vs. Wild [2, 10] | further results |
| --- | --- | --- | --- | --- | --- |
| K13T/F30L/D36G (TTYKLILNGKTLTGETTTEAVDAATAEKVLKQYANGNGVDGEWTYDDATKTFTVTE) |  |  |  |  | KA [1]: 3.17e+06 M⁻¹; KA Vs. Wild [1]: 5.8 |
| K10R/K13T/K28Q/F30L/Q32R: GST-fused one-domain SpG-β1 mutant, amino acid SEQ ID NO: 17 (TTYKLILNGRTLTGETTTEAVDAATAEQVLKRYANDNGVDGEWTYDDATKTFTVTE; also: GST-fused, end not given here) |  |  |  |  | KA [1]: 1.72e+06 M⁻¹; KA Vs. Wild [1]: 3.2 |
| K13T/E19I/V39I: GST-fused one-domain SpG-β1 mutant, amino acid SEQ ID NO: 19 (TTYKLILNGKTLTGETTTIAVDAATAEKVFKQYANDNGIDGEWTYDDATKTFTVTE; also: GST-fused) |  |  |  |  | kon [1]: 222000 s/M; KA [1]: 2.83e+06 M⁻¹; KA Vs. Wild [1]: 5.2; kon [2, 3]: 145000 s/M; KA [2, 4]: 2.74e+06 M⁻¹; KA Vs. Wild [2, 5]: 4.3 |
| K13T/E19I/F30L: GST-fused one-domain SpG-β1 mutant, amino acid SEQ ID NO: 15 (TTYKLILNGKTLTGETTTIAVDAATAEKVLKQYANDNGVDGEWTYDDATKTFTVTE; also: GST-fused) |  |  |  |  | kon [1]: 141000 s/M; KA [1]: 1.99e+06 M⁻¹; KA Vs. Wild [1]: 3.6; kon [2, 3]: 92300 s/M; KA [2, 4]: 1.8e+06 M⁻¹; KA Vs. Wild [2, 5]: 2.8 |
| Pep.1dC K13T/E19I/V21D/T25M/F30L/Y33F/N35F/D47A (TTYKLILNGKTLTGETTTIADDAAMAEKVLKQFAFDNGVDGEWTYDAATKTFTVTE) |  |  |  |  | KA [2, 6]: 5.47e+06 M⁻¹; koff [2, 6]: 0.0137 s⁻¹; kon [2, 6]: 74700 s/M; KA Vs. Wild [2, 7]: 31 |
| K13T/E19I/V21D/T25M/F30L/Y33F/N35F/D47A: GST-fused one-domain SpG-β1 mutant, amino acid SEQ ID NO: 55 (TTYKLILNGKTLTGETTTIADDAAMAEKVLKQFAFDNGVDGEWTYDAATKTFTVTE; also: GST-fused) | 3.47e+06 | 0.003 | 104000 | 9.3 |  |
| K13S/E19V/F30L/Y33F: GST-fused one-domain SpG-β1 mutant, amino acid SEQ ID NO: 81 (TTYKLILNGKTLSGETTTVAVDAATAEKVLKQFANDNGVDGEWTYDDATKTFTVTE; also: GST-fused, end not given here) | 1.54e+06 | 0.0064 | 98400 | 4.1 |  |
| K13T/E19I/K28I/F30L/N35F: GST-fused one-domain SpG-β1 mutant, amino acid SEQ ID NO: 57 (TTYKLILNGKTLTGETTTIAVDAATAEIVLKQYAFDNGVDGEWTYDDATKTFTVTE; also: GST-fused) | 1.4e+06 | 0.0063 | 88000 | 3.7 |  |
| Pep.1d K10R/K13T/T18A/E19I/V21D/T25M/F30L/Y33F/N35F/D47A: SpG-β1 mutant, SEQ ID NO: 87, GST-cleaved one domain type (TTYKLILNGRTLTGETTAIADDAAMAEKVLKQFAFDNGVDGEWTYDAATKTFTVTE; SpG mutant) |  |  |  |  | affinity constant (KA), order of magnitude ([2]; Example 4, GST-cleaved one domain type): ~10^7 M^−1; KA [2, 6]: 1.19e+07 M⁻¹; koff [2, 6]: 0.0117 s⁻¹; kon [2, 6]: 138000 s/M; KA Vs. Wild [2, 7]: 83; KA Vs. Wild ([2]; Table 3, Example 4, fold of wild-type KA of the same construct type, listed as Pep-SpGβ1-K10R/K13T/T18A/E19I/V21D/T25M/F30L/Y33F/N35F/D47A.1d): ≥ 80; affinity / binding ability for the IgG-Fab compared with the wild-type (in words) [2]: significantly higher affinity for the IgG-Fab than Pep-SpGβ1-Wild.1d |
| Pep.1d K13T/T18A/E19I/V21A/K28I/F30L/Y33F/V39I: SpG-β1 mutant, SEQ ID NO: 85, GST-cleaved one domain type (TTYKLILNGKTLTGETTAIAADAATAEIVLKQFANDNGIDGEWTYDDATKTFTVTE; SpG mutant) |  |  |  |  | KA [2, 6]: 5.34e+06 M⁻¹; koff [2, 6]: 0.0207 s⁻¹; kon [2, 6]: 111000 s/M; KA Vs. Wild [2, 7]: 37; affinity / binding ability for the IgG-Fab compared with the wild-type (in words) [2]: significantly higher affinity for the IgG-Fab than Pep-SpGβ1-Wild.1d |
| Pep.1dC K10R/K13T/T18A/E19I/V21D/T25M/F30L/Y33F/N35F/D47A (TTYKLILNGRTLTGETTAIADDAAMAEKVLKQFAFDNGVDGEWTYDAATKTFTVTE) |  |  |  |  | KA [2, 6]: 1.56e+07 M⁻¹; koff [2, 6]: 0.0062 s⁻¹; kon [2, 6]: 97700 s/M; KA Vs. Wild [2, 7]: 88 |
| K13S/E19I/F30L: GST-fused one-domain SpG-β1 mutant, amino acid SEQ ID NO: 29 (TTYKLILNGKTLSGETTTIAVDAATAEKVLKQYANDNGVDGEWTYDDATKTFTVTE; also: GST-fused, end not given here) | 2.23e+06 |  | 137000 | 6.0 |  |
| K13T/E19I/F30L/Y45F/D47Y: GST-fused one-domain SpG-β1 mutant, amino acid SEQ ID NO: 83 (TTYKLILNGKTLTGETTTIAVDAATAEKVLKQYANDNGVDGEWTFDYATKTFTVTE; also: GST-fused) | 1.39e+06 | 0.007 | 97700 | 3.7 |  |
| K13T/E15Q/E19I/E27D/V39I/D47H: GST-fused one-domain SpG-β1 mutant, amino acid SEQ ID NO: 77 (TTYKLILNGKTLTGQTTTIAVDAATADKVFKQYANDNGIDGEWTYDHATKTFTVTE; also: GST-fused) | 1.85e+06 | 0.0067 | 124000 | 4.9 |  |
| K13T/E19I/K28N/F30L/D40V: GST-fused one-domain SpG-β1 mutant, amino acid SEQ ID NO: 33 (TTYKLILNGKTLTGETTTIAVDAATAENVLKQYANDNGVVGEWTYDDATKTFTVTE; also: GST-fused) | 1.43e+06 |  | 108000 | 3.8 |  |
| K13T/E19I/K28R/F30L/Y33F: GST-fused one-domain SpG-β1 mutant, amino acid SEQ ID NO: 27 (TTYKLILNGKTLTGETTTIAVDAATAERVLKQFANDNGVDGEWTYDDATKTFTVTE; also: GST-fused) | 2.02e+06 |  | 85500 | 5.4 |  |
| K13T/E19I/V21D/K28I/F30L/K31R/D47H: GST-fused one-domain SpG-β1 mutant, amino acid SEQ ID NO: 75 (TTYKLILNGKTLTGETTTIADDAATAEIVLRQYANDNGVDGEWTYDHATKTFTVTE; also: GST-fused) | 1.39e+06 | 0.0068 | 95000 | 3.7 |  |
| K13T/E19I/F30L/D47A/K50E: GST-fused one-domain SpG-β1 mutant, amino acid SEQ ID NO: 65 (TTYKLILNGKTLTGETTTIAVDAATAEKVLKQYANDNGVDGEWTYDAATETFTVTE; also: GST-fused) | 1.14e+06 | 0.0062 | 70900 | 3.1 |  |
